# Test results as given in patent publication EP4361176A1 (CHUGAI SEIYAKU KABUSHIKI KAISHA, dated 2024).
# T1: hFcyRIIaH on hFcyRIIaH-expressing Jurkat cells (human, UniProt P12318 34-317)
# T1 sequence (looked up): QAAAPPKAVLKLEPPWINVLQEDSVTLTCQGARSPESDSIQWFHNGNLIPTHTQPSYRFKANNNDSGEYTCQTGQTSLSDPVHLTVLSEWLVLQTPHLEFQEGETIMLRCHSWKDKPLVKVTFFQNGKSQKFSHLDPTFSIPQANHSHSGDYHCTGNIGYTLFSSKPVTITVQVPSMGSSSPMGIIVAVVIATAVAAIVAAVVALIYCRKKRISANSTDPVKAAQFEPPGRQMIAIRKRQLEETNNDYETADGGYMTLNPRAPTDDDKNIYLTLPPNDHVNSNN
# T2: human FcγRIIa H extracellular domain (human, UniProt P12318 34-217)
# T2 construct: extracellular domain; Made by the method of WO2014104165; also called hFcγR IIa H; FcyRIIaH
# T2 sequence (looked up): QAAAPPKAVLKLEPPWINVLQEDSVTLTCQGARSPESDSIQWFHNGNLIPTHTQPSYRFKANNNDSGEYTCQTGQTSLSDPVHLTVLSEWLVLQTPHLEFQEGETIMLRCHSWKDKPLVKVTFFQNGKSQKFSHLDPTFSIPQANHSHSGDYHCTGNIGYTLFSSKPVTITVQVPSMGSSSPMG
# Assays:
# [1] = biological target: hFcyRIIIaV on hFcyRIIIaV-expressing Jurkat cells (human, UniProt P08637 17-254); assay: cell-based or functional assay
# hFcyRIIIaV on hFcyRIIIaV-expressing Jurkat cells, sequence (P08637 17-254): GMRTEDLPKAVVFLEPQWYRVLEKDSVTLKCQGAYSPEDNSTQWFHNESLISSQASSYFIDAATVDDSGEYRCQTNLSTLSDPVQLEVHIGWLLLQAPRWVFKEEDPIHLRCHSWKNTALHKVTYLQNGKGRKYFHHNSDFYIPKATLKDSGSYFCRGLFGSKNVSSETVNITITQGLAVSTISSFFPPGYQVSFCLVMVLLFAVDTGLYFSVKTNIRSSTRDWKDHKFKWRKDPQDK
# [2] = biological target: T1, hFcyRIIaH on hFcyRIIaH-expressing …; assay: cell-based or functional assay
# [3] = biological target: T3, human FcγRIIIa F extracellular domain (human, UniProt P08637 17-208); assay: SPR; KD for FcγRIIb divided by KD for this FcγR
# T3 construct: extracellular domain; Made by the method of WO2014104165; also called hFcγR IIIa F; FcyRIIIaF
# T3 sequence (P08637 17-208): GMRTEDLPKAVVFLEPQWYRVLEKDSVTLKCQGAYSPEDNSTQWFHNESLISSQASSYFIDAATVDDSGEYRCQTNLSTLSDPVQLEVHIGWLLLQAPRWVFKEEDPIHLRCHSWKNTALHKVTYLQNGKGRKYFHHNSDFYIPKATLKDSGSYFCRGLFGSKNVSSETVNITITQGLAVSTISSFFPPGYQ
# [4] = biological target: T2, human FcγRIIa H extracellular domain; assay: SPR; KD for FcγRIIb divided by KD for this FcγR
"EC50 value (µg/mL), ADCC reporter bioassay (fold induction of luminescence), Hepa1-6/hEREG target cells [1] [µg/mL]","EC50 value (µg/mL), ADCP reporter bioassay (fold induction of luminescence), Hepa1-6/hEREG target cells [2] [µg/mL]",A/I ratio (KD for FcγRIIb divided by KD for each FcyR) [3],A/I ratio (KD for FcγRIIb divided by KD for each FcyR) [4],Binder
0.0463,,3.4,8.9,"H240-G1d/L73-k0 (antibody, human IgG1, kappa, Anti-human Epiregulin antibody with the human IgG1 constant region G1d (C-terminal Gly and Lys removed); the text gives 279; also called EGL-G1d) heavy: not shown light: DIQMTQSPSSLSASVGDRVTITCRASQDIHKYIAWYQQKPGQAPRLLIQYTSTLQPGVPSRFSGSGSGTDYTFTISSLQPEDIATYYCLQYEQLRTFGGGTKVEIKRTVAAPSVFIFPPSDEQLKSGTASVVCLLNNFYPREAKVQWKVDNALQSGNSQESVTEQDSKDSTYSLSSTLTLSKADYEKHKVYACEVTHQGLSSPVTKSFNRGEC"
0.000716,0.0353,4950,47.4,"H240-Kn125/L73-k0//H240-Hl076/L73-k0 (antibody, human IgG1, kappa, Heterodimerized anti-human Epiregulin antibody, asymmetric Fc variant; also called EGL-ART1; ART1) heavy 1: QDQLVQSGAEVKKPGASVKVSCKASGFNIKDTYIQWVRQAPGQGLEWMGRIDPLRKQTKYREKFEGRVTITADTSTNTAYMELSSLRSEDTAVYYCVRSGREFDYWGQGTLVTVSSASTKGPSVFPLAPSSKSTSGGTAALGCLVKDYFPEPVTVSWNSGALTSGVHTFPAVLQSSGLYSLSSVVTVPSSSLGTQTYICNVNHKPSNTKVDKKVEPKSCDKTHTCPPCPAPEYQWGPMVFLFPPKPKDTLMISRTPEVTCVVVDVSDEEPEVKFNWYVDGVEVHNAKTKPREEQYNATYRVVSVLTVLHQDWLNGKEYKCKVSNKALPAPIEKTISKAKGQPREPQVCTLPPSRDELTKNQVSLWCLVKGFYPSDIAVEWESNGQPENNYKTTPPVLDSDGSFFLYSKLTVDKSRWQQGNVFSCSVMHEALHNHYTQKSLSLSP heavy 2: QDQLVQSGAEVKKPGASVKVSCKASGFNIKDTYIQWVRQAPGQGLEWMGRIDPLRKQTKYREKFEGRVTITADTSTNTAYMELSSLRSEDTAVYYCVRSGREFDYWGQGTLVTVSSASTKGPSVFPLAPSSKSTSGGTAALGCLVKDYFPEPVTVSWNSGALTSGVHTFPAVLQSSGLYSLSSVVTVPSSSLGTQTYICNVNHKPSNTKVDKKVEPKSCDKTHTCPPCPAPELLGGPSVFLFPPKPKDTLMISRTPEVTCVVVDVSHEEPEVKFNWYVDGVEVHNAKTKPREEQYNSTYRVVSVLTVLHQDWLNGKEYKCKVSNDALPMPIEETISKAKGQPREPQVYTLPPSRCELTKNQVSLSCAVKGFYPSDIAVEWESNGQPENNYKTTPPVLDSDGSFFLVSKLTVDKSRWQQGNVFSCSVMHEALHNHYTQKSLSLSP light: DIQMTQSPSSLSASVGDRVTITCRASQDIHKYIAWYQQKPGQAPRLLIQYTSTLQPGVPSRFSGSGSGTDYTFTISSLQPEDIATYYCLQYEQLRTFGGGTKVEIKRTVAAPSVFIFPPSDEQLKSGTASVVCLLNNFYPREAKVQWKVDNALQSGNSQESVTEQDSKDSTYSLSSTLTLSKADYEKHKVYACEVTHQGLSSPVTKSFNRGEC"

# Further lines, the binder ahead of its results:
Binder,"EC50 value (µg/mL), ADCC reporter bioassay (fold induction of luminescence), Hepa1-6/hEREG target cells [1] [µg/mL]","EC50 value (µg/mL), ADCP reporter bioassay (fold induction of luminescence), Hepa1-6/hEREG target cells [2] [µg/mL]",A/I ratio (KD for FcγRIIb divided by KD for each FcyR) [3],A/I ratio (KD for FcγRIIb divided by KD for each FcyR) [4]
"H240-Kn496/L73-k0//H240-Hl516/L73-k0 (antibody, human IgG1, kappa, also called EGL-ART11; ART11) heavy 1: QDQLVQSGAEVKKPGASVKVSCKASGFNIKDTYIQWVRQAPGQGLEWMGRIDPLRKQTKYREKFEGRVTITADTSTNTAYMELSSLRSEDTAVYYCVRSGREFDYWGQGTLVTVSSASTKGPSVFPLAPSSKSTSGGTAALGCLVKDYFPEPVTVSWNSGALTSGVHTFPAVLQSSGLYSLSSVVTVPSSSLGTQTYICNVNHKPSNTKVDKKVEPKSCDKTHTCPPCPAPEFQWGPMVFLFPPKPKDVLMISRTPEVTCVVVDVSDEEPEVKFNWYVDGVEVHNAKTKPREEQYNATYRVVSVLPVLHQDWLNGKEYKCKVSNKALPAPIEKTISKAKGQPREPQVCTLPPSRDELTKNQVSLWCLVKGFYPSDIAVEWESNGQPENNYKTTPPVLDSDGSFFLYSKLTVDKSRWQQGNVFSCSVMHEALHNHYTQKSLSLSP heavy 2: QDQLVQSGAEVKKPGASVKVSCKASGFNIKDTYIQWVRQAPGQGLEWMGRIDPLRKQTKYREKFEGRVTITADTSTNTAYMELSSLRSEDTAVYYCVRSGREFDYWGQGTLVTVSSASTKGPSVFPLAPSSKSTSGGTAALGCLVKDYFPEPVTVSWNSGALTSGVHTFPAVLQSSGLYSLSSVVTVPSSSLGTQTYICNVNHKPSNTKVDKKVEPKSCDKTHTCPPCPAPELLGGPSVFLFPPKPKDVLMISRTPEVTCVVVDVSHEEPEVKFNWYVDGVEVHNAKTKPREEQYNATYRVVSVLPVLHQDWLNGKEYKCKVSNDALPAPIEETISKAKGQPREPQVYTLPPSRCELTKNQVSLSCAVKGFYPSDIAVEWESNGQPENNYKTTPPVLDSDGSFFLVSKLTVDKSRWQQGNVFSCSVMHEALHNHYTQKSLSLSP light: DIQMTQSPSSLSASVGDRVTITCRASQDIHKYIAWYQQKPGQAPRLLIQYTSTLQPGVPSRFSGSGSGTDYTFTISSLQPEDIATYYCLQYEQLRTFGGGTKVEIKRTVAAPSVFIFPPSDEQLKSGTASVVCLLNNFYPREAKVQWKVDNALQSGNSQESVTEQDSKDSTYSLSSTLTLSKADYEKHKVYACEVTHQGLSSPVTKSFNRGEC",0.000413,0.0367,694,63.3
"H240-Kn032/L73-k0//H240-Hl032/L73-k0 (antibody, human IgG1, kappa, also called EGL-SDALIE; SDALIE) heavy 1: QDQLVQSGAEVKKPGASVKVSCKASGFNIKDTYIQWVRQAPGQGLEWMGRIDPLRKQTKYREKFEGRVTITADTSTNTAYMELSSLRSEDTAVYYCVRSGREFDYWGQGTLVTVSSASTKGPSVFPLAPSSKSTSGGTAALGCLVKDYFPEPVTVSWNSGALTSGVHTFPAVLQSSGLYSLSSVVTVPSSSLGTQTYICNVNHKPSNTKVDKKVEPKSCDKTHTCPPCPAPELLGGPDVFLFPPKPKDTLMISRTPEVTCVVVDVSHEDPEVKFNWYVDGVEVHNAKTKPREEQYNSTYRVVSVLTVLHQDWLNGKEYKCKVSNKALPLPEEKTISKAKGQPREPQVCTLPPSRDELTKNQVSLWCLVKGFYPSDIAVEWESNGQPENNYKTTPPVLDSDGSFFLYSKLTVDKSRWQQGNVFSCSVMHEALHNHYTQKSLSLSP heavy 2: QDQLVQSGAEVKKPGASVKVSCKASGFNIKDTYIQWVRQAPGQGLEWMGRIDPLRKQTKYREKFEGRVTITADTSTNTAYMELSSLRSEDTAVYYCVRSGREFDYWGQGTLVTVSSASTKGPSVFPLAPSSKSTSGGTAALGCLVKDYFPEPVTVSWNSGALTSGVHTFPAVLQSSGLYSLSSVVTVPSSSLGTQTYICNVNHKPSNTKVDKKVEPKSCDKTHTCPPCPAPELLGGPDVFLFPPKPKDTLMISRTPEVTCVVVDVSHEDPEVKFNWYVDGVEVHNAKTKPREEQYNSTYRVVSVLTVLHQDWLNGKEYKCKVSNKALPLPEEKTISKAKGQPREPQVYTLPPSRCELTKNQVSLSCAVKGFYPSDIAVEWESNGQPENNYKTTPPVLDSDGSFFLVSKLTVDKSRWQQGNVFSCSVMHEALHNHYTQKSLSLSP light: DIQMTQSPSSLSASVGDRVTITCRASQDIHKYIAWYQQKPGQAPRLLIQYTSTLQPGVPSRFSGSGSGTDYTFTISSLQPEDIATYYCLQYEQLRTFGGGTKVEIKRTVAAPSVFIFPPSDEQLKSGTASVVCLLNNFYPREAKVQWKVDNALQSGNSQESVTEQDSKDSTYSLSSTLTLSKADYEKHKVYACEVTHQGLSSPVTKSFNRGEC",0.00178,,98.7,2.2
"H240-Kn120/L73-k0//H240-Hl068/L73-k0 (antibody, human IgG1, kappa, also called EGL-ART2; ART2) heavy 1: QDQLVQSGAEVKKPGASVKVSCKASGFNIKDTYIQWVRQAPGQGLEWMGRIDPLRKQTKYREKFEGRVTITADTSTNTAYMELSSLRSEDTAVYYCVRSGREFDYWGQGTLVTVSSASTKGPSVFPLAPSSKSTSGGTAALGCLVKDYFPEPVTVSWNSGALTSGVHTFPAVLQSSGLYSLSSVVTVPSSSLGTQTYICNVNHKPSNTKVDKKVEPKSCDKTHTCPPCPAPEYYWGPMVFLFPPKPKDTLMISRTPEVTCVVVDVSDEDPEVKFNWYVDGVEVHNAKTKPREEQYNATYRVVSVLTVLHQDWLNGKEYKCKVSNKDLPAPIEKTISKAKGQPREPQVCTLPPSRDELTKNQVSLWCLVKGFYPSDIAVEWESNGQPENNYKTTPPVLDSDGSFFLYSKLTVDKSRWQQGNVFSCSVMHEALHNHYTQKSLSLSP heavy 2: QDQLVQSGAEVKKPGASVKVSCKASGFNIKDTYIQWVRQAPGQGLEWMGRIDPLRKQTKYREKFEGRVTITADTSTNTAYMELSSLRSEDTAVYYCVRSGREFDYWGQGTLVTVSSASTKGPSVFPLAPSSKSTSGGTAALGCLVKDYFPEPVTVSWNSGALTSGVHTFPAVLQSSGLYSLSSVVTVPSSSLGTQTYICNVNHKPSNTKVDKKVEPKSCDKTHTCPPCPAPELLGGPSVFLFPPKPKDTLMISRTPEVTCVVVDVSHEEPEVKFNWYVDGVEVHNAKTKPREEQYNSTYRVVSVLTVLHQDWLNGKEYKCKVSNDALPKPIEETISKAKGQPREPQVYTLPPSRCELTKNQVSLSCAVKGFYPSDIAVEWESNGQPENNYKTTPPVLDSDGSFFLVSKLTVDKSRWQQGNVFSCSVMHEALHNHYTQKSLSLSP light: DIQMTQSPSSLSASVGDRVTITCRASQDIHKYIAWYQQKPGQAPRLLIQYTSTLQPGVPSRFSGSGSGTDYTFTISSLQPEDIATYYCLQYEQLRTFGGGTKVEIKRTVAAPSVFIFPPSDEQLKSGTASVVCLLNNFYPREAKVQWKVDNALQSGNSQESVTEQDSKDSTYSLSSTLTLSKADYEKHKVYACEVTHQGLSSPVTKSFNRGEC",0.00135,0.0218,68.4,5.8
